In data set [1] the target is Human DLL3 expressed on cells (HEK293T-hDLL3, NCI-H82, SHP-77, MC38-hDLL3) (human) (UniProt Q9NYJ7). As to the kind of experiment: flow cytometry titration on HEK293T-hDLL3 cells, with HSA.
Data set [2] shares this target. In words: flow cytometry titration on HEK293T-hDLL3 cells, without HSA. (Flow cytometry measures light scatter and fluorescence of single cells or particles in a stream.)
Data set [3] has as its target T1, Human DLL3 expressed on cells (HEK293T-hDLL3, NCI-H82, SHP-77, MC38-hDLL3) (human, UniProt Q9NYJ7 27-618).
T1 construct: also called DLL3 endogenously expressed on human cells
T1 sequence: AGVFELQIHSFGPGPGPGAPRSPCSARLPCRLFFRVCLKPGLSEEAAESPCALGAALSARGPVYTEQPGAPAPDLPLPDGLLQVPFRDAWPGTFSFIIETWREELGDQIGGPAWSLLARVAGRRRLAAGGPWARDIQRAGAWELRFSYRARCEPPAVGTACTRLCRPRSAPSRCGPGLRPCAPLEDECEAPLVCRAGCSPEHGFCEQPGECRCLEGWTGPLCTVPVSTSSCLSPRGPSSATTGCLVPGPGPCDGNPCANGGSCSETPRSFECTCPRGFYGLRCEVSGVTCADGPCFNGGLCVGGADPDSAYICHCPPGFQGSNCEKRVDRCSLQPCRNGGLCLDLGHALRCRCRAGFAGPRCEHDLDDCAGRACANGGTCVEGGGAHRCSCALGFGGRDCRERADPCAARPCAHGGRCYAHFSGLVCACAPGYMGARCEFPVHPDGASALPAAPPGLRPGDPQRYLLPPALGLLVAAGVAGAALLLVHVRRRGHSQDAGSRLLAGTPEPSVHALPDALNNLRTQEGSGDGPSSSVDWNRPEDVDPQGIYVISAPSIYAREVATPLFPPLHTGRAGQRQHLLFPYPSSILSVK
As to the kind of experiment: flow cytometry titration on NCI-H82 cells (endogenous DLL3), with 10 uM HSA. As to the method: (§1) Furthermore, cell binding titration assays were also performed with selected two domain (2D) designed ankyrin repeat proteins to determine binding to human cells expressing DLL3 endogenously, in absence and presence of human serum albumin. For this purpose, NCI-H82 cells were used, a human lung carcinoma cell line which endogenously expresses DLL3 on the surface. […] A non-binding DARPin comprising SEQ ID NO: 22 was used as a negative control.
(§2) In brief, 1×10⁵ cells/well were resuspended in 100 μl DARPin dilution (500 nM, 1:5 serial diluted in PBS, 2% FBS) and incubated for 1 h at 4° C. This step was performed in absence and presence of 10 μM Human Serum Albumine (CSL Behring #150570). Cells were washed twice with PBS, 2% FBS and resuspended in 100 μl anti-DARPin antibody (rabbit anti-DARPin 1.4.8) and LIVE/DEAD cell stain (1:1000, Biolegend #423106). After incubation and washing, cells were incubated with detection antibody for 30 minutes (Goat […] IgG (H+L), AF647, Thermo Fisher #21445). Cells were fixed (Paraformaldehyde Solution, TCL119, LucernaChem) and acquired at Attune N×T (Thermo Life Technologies). Raw fcs files were exported and analyzed using FlowJo software. MFI values of live AF647-positive cells were exported from FlowJo and plotted using GraphPad Prism software.

The target of data set [4] is T1, Human DLL3 expressed on cells …. In words: flow cytometry titration on NCI-H82 cells (endogenous DLL3), without HSA. How it is done: as §1, §2
The target in data set [5] is T2, human serum albumin (human, UniProt P02768 25-609).
T2 construct: also called HSA
In words: SPR (Bruker Sierra SPR-32), HSA on chip, DARPin as analyte, 1:1 Langmuir fit. As to the method:
(§3) Similarly, a SPR assay was used to determine the binding kinetics to human or mouse serum albumin. […] All analytes (3-fold dilution ranging from 1000-12.35 nM) were injected in succession for 240 s (25 μl/min) and dissociation was recorded for 600 s (25 μl/min).

The target in data set [6] is T3, hDLL3 ECD-Avi-Fckih (biotinylated extracellular domain of human DLL3, residues 27 to 466, Avi-tag, 3C site, … (human, UniProt Q9NYJ7 27-466, biotinylated at the Avi-tag)).
T3 construct: The make-up of the second Fc chain of the knob-into-hole pair is not described; also called bio-DLL3; recombinant human DLL3; not shown: Avi-tag, 3C protease recognition site and Fc knob into hole
T3 sequence: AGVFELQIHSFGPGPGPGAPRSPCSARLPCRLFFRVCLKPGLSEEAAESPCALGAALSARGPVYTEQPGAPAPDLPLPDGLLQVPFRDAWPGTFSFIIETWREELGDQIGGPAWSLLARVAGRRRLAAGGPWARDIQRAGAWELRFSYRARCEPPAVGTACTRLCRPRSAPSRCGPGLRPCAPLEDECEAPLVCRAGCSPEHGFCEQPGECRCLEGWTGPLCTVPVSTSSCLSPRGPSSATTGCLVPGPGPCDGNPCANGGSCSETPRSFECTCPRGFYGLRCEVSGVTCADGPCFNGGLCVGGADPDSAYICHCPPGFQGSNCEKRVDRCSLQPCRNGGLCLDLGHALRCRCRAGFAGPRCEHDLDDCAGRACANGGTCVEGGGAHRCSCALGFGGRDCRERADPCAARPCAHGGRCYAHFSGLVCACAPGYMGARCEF
In words: SPR (ProteOn), biotinylated hDLL3 ECD-Avi-Fckih on chip, DARPin as analyte, 1:1 Langmuir fit. How it is done:
Kinetic binding parameters and binding affinities of two domain (2D) ankyrin repeat proteins comprising an ankyrin repeat domain with binding specificity for DLL3 and an ankyrin repeat domain with binding specificity for serum albumin were determined by surface plasmon resonance (SPR) multi-trace analysis.
In brief, a SPR assay was used to determine the binding kinetics to the target human DLL3. The data were generated using BioRad ProteOn instrument in SPR running buffer (PBS, pH 7.4 containing 0.005% Tween 20®). […] The chip was coated with biotinylated target (bio-DLL3) to reach a signal intensity of 1780 RU. […] Each injection was followed by a regeneration step with 16 mM H₃PO₄ for 18 s. […] The bio-DLL3 target used was as described in U.S. 63/550,951, i.e. the extracellular domain (ECD) of human DLL3 protein (Q9NYJ7, Gene ID: 10683, residues 27 to 466; purchased from Evitria) linked via an Avi-tag (for site-directed biotinylation), followed by a 3C protease recognition site, to a Fc knob into hole (hDLL3 ECD-Avi-Fcₖᵢₕ).

For data set [7], the target named is T1, Human DLL3 expressed on cells …. In words: flow cytometry titration on HEK293T-hDLL3 cells, without HSA. How it is done: (§4) Cell binding titration assays were performed for selected His-tagged single domain (1 D) and two domain (2D) designed ankyrin repeat proteins to determine binding to human DLL3 expressed on HEK293T-huDLL3 cells in absence and presence of human serum albumin. […] HEK293T-hDLL3 cells are HEK293T cells that were stably transfected to express human DLL3 on their surface.
as §2, with “diluted)” for “diluted in PBS, 2% FBS)”, “C.” for “C. This step was performed in absence and presence of 10 μM Human Serum Albumine (CSL Behring #150570).”, “PBS” for “PBS, 2% FBS”, “LIVE/DEAD fixable” for “LIVE/DEAD”, “Thermo Fisher #L34957). This step was performed in absence and presence of […] Human Serum Albumin (CSL Behring #150570).” for “Biolegend #423106).”, “Solution,” for “Solution, TCL119,”

The target of data set [8] is T4, mouse serum albumin (mouse, UniProt P07724 25-608).
T4 construct: also called MSA
In words: SPR (Bruker Sierra SPR-32), MSA on chip, DARPin as analyte, 1:1 Langmuir fit. How it is done:
as §3

Data set [9] deals with T1, Human DLL3 expressed on cells …. As to the kind of experiment: flow cytometry titration on HEK293T-hDLL3 cells, with HSA. How it is done:
as §4
as §2, with “diluted)” for “diluted in PBS, 2% FBS)”, “C.” for “C. This step was performed in absence and presence of 10 μM Human Serum Albumine (CSL Behring #150570).”, “PBS” for “PBS, 2% FBS”, “LIVE/DEAD fixable” for “LIVE/DEAD”, “Thermo Fisher #L34957). This step was performed in absence and presence of […] Human Serum Albumin (CSL Behring #150570).” for “Biolegend #423106).”, “Solution,” for “Solution, TCL119,”

Data set [10] concerns the target human serum albumin (Homo sapiens, UniProt P02768).
In data set [11] the target is T5, mouse serum albumin (Mus musculus, UniProt P07724).
T5 construct: purchased Sigma-Aldrich
As to the kind of experiment: SPR binding of 2D DARPins with different HSA binders to mouse serum albumin (Example 3). The conditions noted are these: immobilized MSA, Cysteine capped with IAM, 1:1 Langmuir, Table 12.

Residue numbers refer to the chain shown, from its start.

What is called EC50 is the midpoint of the concentration-response curve. A low value points to an effect from little substance. What is called Kd is the concentration at which binding is half-saturated. Low values mean tighter binding, high ones weaker binding. A word on the koff: it is the rate constant with which the complex falls apart. Low values mean slow dissociation, high ones fast dissociation. The kon is the second-order rate constant of association.

T4 sequence (P07724 25-608 limits assumed): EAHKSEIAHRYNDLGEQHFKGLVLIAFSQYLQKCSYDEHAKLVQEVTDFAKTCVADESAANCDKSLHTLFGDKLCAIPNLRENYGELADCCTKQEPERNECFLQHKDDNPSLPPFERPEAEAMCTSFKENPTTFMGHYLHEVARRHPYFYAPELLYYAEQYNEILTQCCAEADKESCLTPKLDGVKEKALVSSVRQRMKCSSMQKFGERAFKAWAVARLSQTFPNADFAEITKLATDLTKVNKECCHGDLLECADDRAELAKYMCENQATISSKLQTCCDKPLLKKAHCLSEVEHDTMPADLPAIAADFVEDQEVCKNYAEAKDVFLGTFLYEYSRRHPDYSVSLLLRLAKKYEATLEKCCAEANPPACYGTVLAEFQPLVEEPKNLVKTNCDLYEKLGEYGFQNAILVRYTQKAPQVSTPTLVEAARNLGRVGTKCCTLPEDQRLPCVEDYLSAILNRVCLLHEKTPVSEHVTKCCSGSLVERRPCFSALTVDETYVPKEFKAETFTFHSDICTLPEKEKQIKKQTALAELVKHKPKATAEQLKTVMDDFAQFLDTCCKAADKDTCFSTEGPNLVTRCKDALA
T5 sequence (P07724 25-608): as the sequence (P07724 25-608 limits assumed) above

With Rova antibody, the EC50 in data set [1] amounted to 0.3 nM; in [2] it was 0.1 nM.

B1: MAM283 (two domain ankyrin repeat protein, N-terminal His6-TEV tag) (designed binder)
chain: MRGSHHHHHHENLYFQDLGKKLLEAARAGQDDEVRELLKAGADVNAKDYFSHTPLHLAARNGHLKIVEVLLKAGADVNAKDFAGKTPLHLAADAGHLEIVEVLLKAGADVNAQDIFGKTPADIAADAGHEDIAEVLQKAAGSPTPTPTTPTPTPTTPTPTPTGSDLGKKLLAAAADGQDDEVRELLQAGADVNAKDLFGYTPLHLAAWRGHLEIVEVLLEAGADVNAKDAAGETPLHLAAWFGHLEIVEVLLEAGADVNAQDVQGKTPADLAAKEGHEDIAEVLQQAA
notes: also called 2D DARPin
With B1, the EC50 in data set [3] was 8.1 nM; in data set [4] it was 5.4 nM; in data set [7], 22.1 nM; in [9], 18.4 nM. For the same molecule, the results for the Kd in data set [5], in data set [6] and in data set [8] were 103 nM, 0.953 nM and 507 nM, respectively. Further, the koff in data set [5] came out at 0.00924 s⁻¹; in [6], 1.79e-05 s⁻¹; in data set [8], 0.0378 s⁻¹. Besides, the kon in data set [5] was 89500 M⁻¹ s⁻¹; in [6] it was 18800 M⁻¹ s⁻¹; in data set [8], 74700 M⁻¹ s⁻¹.

B2: MAM279 (two domain ankyrin repeat protein, N-terminal His6-TEV tag) (designed binder)
chain: B1 chain with D176Q, Q187K, D191N, E220K, E253K, V263L, Q286K
notes: Cleavage of the tag is not reported; also called 2D DARPin
As for B2, the EC50 in data set [3] came to 2.1 nM; in data set [4], 2.5 nM; in [7] it was 14.9 nM; in data set [9], 16.3 nM. Moreover, the Kd was 75 nM in [5], 0.616 nM in [6] and 367 nM in data set [8]. In addition, the values for the koff in data set [5], in data set [6] and in data set [8] were 0.00923 s⁻¹, 1.44e-05 s⁻¹ and 0.0335 s⁻¹, respectively. Also, the figures for the kon in data set [5], in data set [6] and in data set [8] were 123000 M⁻¹ s⁻¹, 23300 M⁻¹ s⁻¹ and 91200 M⁻¹ s⁻¹, respectively.

B3: High HSA affinity 2D DARPin: MAM160 with a GS at the N-terminus and a Cysteine-containing tag at the C-terminus (protein)
chain: GSDLGKKLLEAARAGQDDEVRELLKAGADVNAKDYFSHTPLHLAARNGHLKIVEVLLKAGADVNAKDFAGKTPLHLAADAGHLEIVEVLLKAGADVNAQDIFGKTPADIAADAGHEDIAEVLQKAAGSPTPTPTTPTPTPTTPTPTPTGSDLGTKLLSAAADGQDDEVRELLQAGADVNAKDLFGYTPLHLAAWRGHLEIVEVLLEAGADVNAKDAAGLTPLHLAAWFGHLEIVEVLLEAGADVNAQDVQGVTPADLAAKEGHEDIAEVLQQAAGSGSC
modifications: Ankyrin repeat protein with tag (GS-MAM160-tag)
Turning to B3, in [10], the “Koff HSA” value was 0.0311 s⁻¹ and the “Kon HSA” value was 105000 M⁻¹ s⁻¹. In addition, the “fold higher binding affinity to HSA than the Low HSA affinity 2D DARPin” value in [10] (SPR KD comparison) is reported as “about 10 fold”. For the same molecule, in data set [11], the “Koff MSA” value was 0.0345 s⁻¹ and the “Kon MSA” value is 133000 M⁻¹ s⁻¹.

B4: MAM282 (two domain ankyrin repeat protein, N-terminal His6-TEV tag) (designed binder)
chain: MRGSHHHHHHENLYFQDLGKKLLEAARAGQDDEVRELLKAGADVNAKDYFSHTPLHLAARNGHLKIVEVLLKAGADVNAKDFAGKTPLHLAADAGHLEIVEVLLKAGADVNAQDIFGKTPADIAADAGHEDIAEVLQKAAGSPTPTPTTPTPTPTTPTPTPTGSDLGKKLLAAAREGQDDEVRELLKAGADVNAKDIWGQTPLHIAAWFGHLEIVEVLLKAGADVNAKDQTGHTPLHLAAKFGHLEIVEVLLKAGADVNAQDLLGRTPADLAAEEGHEDIAEVLQKAA
notes: also called 2D DARPin
With B4, the EC50 in data set [3] amounted to 2.6 nM; in data set [4] it was 2.6 nM; in data set [7], 21.2 nM; in data set [9] it was 19.6 nM. Further, the Kd in data set [5] was found to be 74.3 nM; in data set [6], 3.03 nM; in data set [8], 335 nM. Moreover, the koff in [5] turned out to be 0.00889 s⁻¹; in data set [6], 3.79e-05 s⁻¹; in data set [8], 0.0354 s⁻¹. In addition, the kon in [5] came out at 120000 M⁻¹ s⁻¹; in data set [6] it was 12500 M⁻¹ s⁻¹; in data set [8] it was 106000 M⁻¹ s⁻¹.

These data come from US20250332297A1, “DLL3-SPECIFIC BINDING CONSTRUCTS AND THEIR USE IN RADIOTHERAPY” (MOLECULAR PARTNERS AG, priority 2024, published 2025).
